Data reported in paper PMC10107573 (Nature Communications, 2023).

Biological target: recombinant biotinylated SARS-CoV-2 spike RBD, wild type (SARS-CoV-2, UniProt P0DTC2, biotinylated)
Assay: BLI
Conditions: both partners purified

Binder	binding result
monoclonal antibody 10-5B (human IgG1) (antibody, V domains shown) VH: EVQLVESGGGLIQPGGSLRLSCAVSGFTVSRMSWVRQAPGKGLECVSVIYTGGNTDYADSVKGRFTISRDNSKNTLYLQMNSLRAEDTALYYCVRGSGGIHDAFDIWGQGTMVTVSS VL: DIQMTQSPSSVSASVGDRVTITCRASQGISTWLAWYQQKPGKAPKVLINAASGLQSGVPSRFSGSGSGTDFTLTISSLQPEDFATYYCQQAHSFPPTFGPGTKLEIK	binds
monoclonal antibody 1-1D (human IgG1) (antibody, V domains shown) VH: EVQLVESGGGLIQPGGSLRLSCAASGFTVSSNYMSWVRQAPGKGLEWVSVIYSGGSTYFADSVKGRFTISRDNSKNTLYLQMNSLRAEDTAVYYCARGELGYSYGMDVWGQGTTVTVSS VL: QSVLTQPPSVSAAPGQKVTISCSGSSSNIGDNYVSWYQLLPGTAPKLLIYDNNQRPSGIPDRFSGSKSGTSATLGITGLQTGDEADYYCGTWDSSLSTGVFGGGTRLTVL	binds
